2 molecules from US20250002588A1 can be followed below.

For this assay, the target named is ALK-1/BMPR-2 receptor pair of the PathHunter U2Os dimerization cells (DiscoverX 93-0962C3) (UniProt P37023). Kind of assay: cell-based or functional assay.
Sequence of ALK-1/BMPR-2 receptor pair of the PathHunter U2Os dimerization cells (DiscoverX 93-0962C3) (P37023 22-503, chain 1 of 2): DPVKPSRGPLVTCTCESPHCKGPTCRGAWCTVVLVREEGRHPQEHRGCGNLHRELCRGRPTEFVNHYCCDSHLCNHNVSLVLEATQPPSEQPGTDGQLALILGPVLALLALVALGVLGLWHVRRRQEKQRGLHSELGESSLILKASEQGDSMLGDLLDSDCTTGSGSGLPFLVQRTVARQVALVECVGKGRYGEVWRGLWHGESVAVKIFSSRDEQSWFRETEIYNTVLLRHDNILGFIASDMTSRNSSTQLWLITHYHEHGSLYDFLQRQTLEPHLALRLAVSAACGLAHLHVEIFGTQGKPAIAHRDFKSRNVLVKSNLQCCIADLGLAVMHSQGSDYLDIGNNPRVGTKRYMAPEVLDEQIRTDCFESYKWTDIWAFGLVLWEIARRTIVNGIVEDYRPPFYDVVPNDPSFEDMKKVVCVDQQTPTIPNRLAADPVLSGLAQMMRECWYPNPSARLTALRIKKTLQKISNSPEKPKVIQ
Sequence of ALK-1/BMPR-2 receptor pair of the PathHunter U2Os dimerization cells (DiscoverX 93-0962C3) (Q13873 27-1038, chain 2 of 2, further chain): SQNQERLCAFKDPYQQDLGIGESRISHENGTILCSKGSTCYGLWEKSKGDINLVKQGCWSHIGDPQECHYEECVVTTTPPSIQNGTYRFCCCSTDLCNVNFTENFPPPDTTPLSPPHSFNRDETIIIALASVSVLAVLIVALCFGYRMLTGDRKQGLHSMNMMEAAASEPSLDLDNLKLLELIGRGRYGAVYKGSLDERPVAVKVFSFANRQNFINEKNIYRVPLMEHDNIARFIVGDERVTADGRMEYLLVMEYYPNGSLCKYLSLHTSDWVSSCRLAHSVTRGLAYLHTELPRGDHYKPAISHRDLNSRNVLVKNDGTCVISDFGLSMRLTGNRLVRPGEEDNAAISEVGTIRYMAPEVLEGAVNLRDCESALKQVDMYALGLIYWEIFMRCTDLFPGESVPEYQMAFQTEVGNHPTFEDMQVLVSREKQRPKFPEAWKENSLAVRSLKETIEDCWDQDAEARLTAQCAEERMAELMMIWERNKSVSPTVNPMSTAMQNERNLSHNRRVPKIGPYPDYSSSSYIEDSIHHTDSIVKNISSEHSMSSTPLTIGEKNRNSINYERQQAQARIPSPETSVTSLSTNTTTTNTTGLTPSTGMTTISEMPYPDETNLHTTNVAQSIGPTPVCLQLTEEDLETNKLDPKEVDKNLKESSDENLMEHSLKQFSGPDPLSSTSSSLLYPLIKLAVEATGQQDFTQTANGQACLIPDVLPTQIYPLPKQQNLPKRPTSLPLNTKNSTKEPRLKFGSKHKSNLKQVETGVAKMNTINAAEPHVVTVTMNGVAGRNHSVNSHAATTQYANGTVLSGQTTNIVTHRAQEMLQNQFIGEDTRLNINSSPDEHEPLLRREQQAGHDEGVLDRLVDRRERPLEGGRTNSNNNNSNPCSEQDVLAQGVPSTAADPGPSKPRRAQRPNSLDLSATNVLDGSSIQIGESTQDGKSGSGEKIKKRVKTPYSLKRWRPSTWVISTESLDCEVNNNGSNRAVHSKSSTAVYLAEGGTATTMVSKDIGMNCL

B1: BMP9 (ligand, UniProt Q9UK05 320-429, looked up)
chain: SAGAGSHCQKTSLRVNFEDIGWDSWIIAPKEYEAYECKGGCFFPLADDVTPTKHAIVQTLVHLKFPTKVGKACCVPTKLSPISVLYKDDMGVPTLKYHYEGMSVAECGCR
Regarding B1, the % Emax BMP9 amounted to 100%, the concentration giving a half-maximal response (EC50) came to 0.02 nM and the EMAX (RLU) turned out to be 2.64e+06 RLU.

B2: BMP10 (ligand, UniProt O95393 317-424, looked up)
chain: NAKGNYCKRTPLYIDFKEIGWDSWIIAPPGYEAYECRGVCNYPLAEHLTPTKHAIIQALVHLKNSQKASKACCVPTKLEPISILYLDKGVVTYKFKYEGMAVSECGCR
Molecule B2 came in with a % Emax BMP9 of 97%, an EC50 of 0.1 nM and an EMAX (RLU) of 2.57e+06 RLU.
